B1: apo-Alt a 1: recombinant Alternaria alternata allergen Alt a 1, dialyzed against DFO, iron-free (protein, UniProt P79085 19-157, looked up)
Major allergen Alt a 1: APLESRQDTASCPVTTEGDYVWKISEFYGRKPEGTYYNSLGFNIKATNGGTLDFTCSAQADKLEDHKWYSCGENSFMDFSFDSDRSGLLLKQKVSDDITYVATATLPNYCRAGGNGPKDFVCQGVADAYITLVTLPKSS
B2: holo-Alt a 1: recombinant Alt a 1 incubated with equimolar iron and three-fold molar catechol (protein, UniProt P79085 19-157, looked up)
Major allergen Alt a 1: APLESRQDTASCPVTTEGDYVWKISEFYGRKPEGTYYNSLGFNIKATNGGTLDFTCSAQADKLEDHKWYSCGENSFMDFSFDSDRSGLLLKQKVSDDITYVATATLPNYCRAGGNGPKDFVCQGVADAYITLVTLPKSS
modifications: iron and catechol bound
notes: recombinant Alt a 1 incubated with equimolar iron and three-fold molar catechol
B3: apoBetv1: recombinant Bet v 1a birch allergen, used as purchased, without siderophore-iron (protein, UniProt P15494 2-160, looked up)
Major pollen allergen Bet v …: GVFNYETETTSVIPAARLFKAFILDGDNLFPKVAPQAISSVENIEGNGGPGTIKKISFPEGFPFKYVKDRVDEVDHTNFKYNYSVIEGGPIGDTLEKISNEIKIVATPDGGSILKISNKYHTKGDHEVKAEQVKASKEMGETLLRAVESYLLAHSDAYN
B4: holoBetv1: recombinant Bet v 1a incubated with equimolar iron and three-fold molar catechol (protein, UniProt P15494 2-160, looked up)
Major pollen allergen Bet v …: GVFNYETETTSVIPAARLFKAFILDGDNLFPKVAPQAISSVENIEGNGGPGTIKKISFPEGFPFKYVKDRVDEVDHTNFKYNYSVIEGGPIGDTLEKISNEIKIVATPDGGSILKISNKYHTKGDHEVKAEQVKASKEMGETLLRAVESYLLAHSDAYN
modifications: iron and catechol complex
notes: recombinant Bet v 1a incubated with equimolar iron and three-fold molar catechol

Legend:
[1] = Iron-binding capacity of lipocalin allergens (quenching of autofluorescence); settings: 2 μM allergen, 50UM siderophore (2,3, Dihydroxybenzoic Acid), iron III 0 to 50 μM; excitation/emission 280 and 340
Description: In this assay, 2 μM of allergen (in the example BLG) and 50UM of siderophores like 2,3, Dihydroxybenzoic Acid are incubated with increasing concentrations of iron III (Fe3+) ranging from 0 to 50 μM (x-axis in FIG. 5). Quenching of autofluorescence is measured at excitation and emission wavelengths of […] respectively in endpoint mode (y-axis in FIG. 5).

PMA-activated PBMCs = test: Cytokine content (IL13, IFN-γ) of supernatants of PMA-activated PBMCs stimulated with apo-/holo-allergens (ELISA); type: cell-based, human; settings: PMA-activated PBMCs incubated for 18-24h; allergen 100 μg/ml with or without 10 μM catechol and 10 μM iron
Description: To PBMCs (0.5 Mio/test) a final concentration of 0.75 ng/ml PMA, 100 μg/ml apo-allergen (BLG, Alt a 1 and Bet v 1) with or without 10 μM catechol (Sigma) and 10 μM iron was added. For control purposes also tested without allergen or PMA. PMA each substance was determined in pre-experiments and considered concentration was optimal when cells were slightly downregulating surface CD4+ expression (7). After 18-24h supernatants were collected and stored at −80° ° C. until further analysis.
LCN2 and the cytokine levels of IL13 and IFNγ were detected with commercially available kits according to the manufacturers' protocol. Sera were diluted 1:100 before determining LCN2-levels, whereas supernatants of 18-24h stimulation were used undiluted. Sensitivity of LCN2 assay is about 75 pg/ml and kits were purchased from R&D Systems (Minneapolis, MN, USA), whereas ELISAs for human IL13 and IFNγ were from ebioscience (Santa Clara, CA, USA), both assays having a reported sensitivity of 4 pg/ml.

[2] = tested on: CD3+ cells of PMA-activated PBMCs; test: CD4/CD8 expression and survival of PMA-activated PBMCs incubated with apo- or holo-lipocalin allergens (FACS); type: cell-based, human; settings: PBMCs pre-activated 24 h with PMA 0.75 ng/ml; allergen 100 μg/ml; holo = with catechol and iron; gated for CD3, 10000 CD3 cells recorded
Description: Cells were then stained for CD3-APC, CD8-PE, CD4-PE-CY7, 7AAD and Annexin V-FITC, gated for CD3 and analyzed by a FACS Canto II. Data acquisition was stopped when 10000 CD3 cells were recorded.
Apo-allergens were incubated with equimolar concentration of iron (ammonium iron (III) citrate, Sigma) and three-fold molar concentration of catechol, since 3 catechols are necessary for hexadental binding of iron in the LCN2-pocket against deionized water. Recombinant Bet v1a (Biomay, Vienna, Austria) was used as purchased
Blood was mixed with equal volumes of PBS containing 2% FCS before applying onto 10 ml Ficoll-Paque PLUS (GE Healthcare, Uppsala, Sweden), centrifugation at 400 g for 30 min without brake and washing the cells twice with 0,89% sodium chloride solution. Cells were then diluted to a concentration of 1Mio cells/ml in RPMI medium containing 10% FCS. Throughout the study FCS from the same lot was always used.
To PBMCs (0.5 Mio/test) a final concentration of 0.75 ng/ml PMA, 100 μg/ml apo-allergen (BLG, Alt a 1 and Bet v 1) with or without 10 μM catechol (Sigma) and 10 μM iron was added. For control purposes also tested without allergen or PMA. PMA each substance was determined in pre-experiments and considered concentration was optimal when cells were slightly downregulating surface CD4+ expression (7). […]

Molecule	Autofluorescence of the cavity (iron-binding) [1]	Th2-cytokines released upon stimulation (IL13 and IFN-γ analyzed) (PMA-activated PBMCs)	CD4 expression and survival [2]
BLG: commercially available bovine beta-lactoglobulin, lipocalin allergen	quenched	–	–
B1	–	released	–
B2	–	not	–
B3	–	released	increase
B4	–	not	sharp contrast

From US12085574B2, “Method and means for diagnosing and treating allergy” (BIOMEDICAL INTERNATIONAL R+D GMBH, priority 2014, dated 2024)
